Target: human IL-17RC on HS68 foreskin fibroblast cells (human) (UniProt Q8NAC3)
Assay: cell-based or functional assay

Chain of UniProt Q8NAC3 (Q8NAC3 21-791): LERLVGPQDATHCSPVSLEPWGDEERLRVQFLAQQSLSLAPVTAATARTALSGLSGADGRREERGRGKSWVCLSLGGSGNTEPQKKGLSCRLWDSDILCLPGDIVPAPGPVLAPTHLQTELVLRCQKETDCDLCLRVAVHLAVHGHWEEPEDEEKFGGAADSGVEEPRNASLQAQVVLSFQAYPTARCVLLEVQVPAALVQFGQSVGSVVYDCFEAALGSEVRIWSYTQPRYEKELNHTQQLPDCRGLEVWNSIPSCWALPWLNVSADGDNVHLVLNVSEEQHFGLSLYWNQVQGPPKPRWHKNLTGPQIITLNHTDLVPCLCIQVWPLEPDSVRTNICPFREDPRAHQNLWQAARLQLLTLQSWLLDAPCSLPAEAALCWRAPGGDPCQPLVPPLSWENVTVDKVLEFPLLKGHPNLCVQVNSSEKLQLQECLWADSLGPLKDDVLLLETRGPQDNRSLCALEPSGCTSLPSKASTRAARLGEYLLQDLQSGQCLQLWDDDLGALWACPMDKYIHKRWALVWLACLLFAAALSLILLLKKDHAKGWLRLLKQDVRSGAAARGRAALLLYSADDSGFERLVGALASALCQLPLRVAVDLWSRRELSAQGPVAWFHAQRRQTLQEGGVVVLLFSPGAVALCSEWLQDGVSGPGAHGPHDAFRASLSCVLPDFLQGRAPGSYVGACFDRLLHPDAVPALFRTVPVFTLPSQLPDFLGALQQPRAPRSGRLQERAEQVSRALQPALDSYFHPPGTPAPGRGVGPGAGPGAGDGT

IL-6 induction in HS68 cells, EC50: 5 to 10 ng/mL
Substance: human IL-17A (from UniProt Q16552 24-155) (ligand)
